Data on two molecules can be found in patent publication US12258605B2, “Alkane oxidation by modified hydroxylases” (The California Institute of Technology, priority 2005, dated 2025).

Type in all cases: biochemical
The nature of test [1]: Methane to methanol conversion (alcohol oxidase/Purpald). The following applies: methane to methanol. Here is the method: The 35-E11 variant was tested for the ability to convert methane to methanol using the method of Anthon and Barrett (Agric. Food Chem., 52:3749 (2004)). The method was optimized so that it could detect methanol concentrations in water as low as 10 μM.
The mutant BM-3 enzymes described below were purified using published procedures and used as catalysts in small reactions with methane. In glass head space vials containing magnetic stirring bars, BM-3 catalyst was added to 0.1 M potassium phosphate buffer (pH=8) saturated with methane. The vials were then crimped shut and charged to 20 psi with methane. To start the biotransformation, an NADPH regeneration system consisting of NADP+, isocitrate, and isocitric dehydrogenase was added through a syringe. The reaction was allowed to stir 12-15 hours. Methanol production was measured using a coupled enzyme assay. Aliquots of the reaction were transferred to 96-well microtitre plates and reacted with the enzyme alcohol oxidase for 5 minutes at room temperature. Alcohol oxidase converts the methanol produced by the BM-3 variants into formaldehyde which can be detected with the dye Purpald. To detect formaldehyde and quench the alcohol oxidase reaction, a solution of Purpald in 2 M NaOH was added and allowed to react for one hour. The purple color that Purpald forms in the presence of formaldehyde was quantified one hour later by spectrophotometrically reading the well at 550 nm and comparing the absorbance against similarly-treated solutions of BM-3, NADPH regeneration system, and methane-free buffer spiked with known concentrations of methanol. The results of these biotransformations are reported in Table 3 and sample spectra from the colorimetric assay are shown in FIG. 7.
Reactions for enzyme-catalyzed conversion of methane to methanol were carried out in 10 mL glass headspace vials. A 470 μL reaction mixture containing 5 μM purified BM-3 variant in 0.1 M potassium phosphate buffer (pH 8.0) was first added to the vial. The vial was immediately topped with a septum, pressurized with 30 psi of methane and shaken at 4° C. for 1 hour. […] For determination of total turnover, the reaction was allowed to proceed for 20 hours at room temperature.
The amount of methanol product formed during the 20 hr methane reaction was quantified colorimetrically with the use of alcohol oxidase and Purpald. 190 μL of the reaction mixture is transferred onto a single cell of a 96 well plate. 10 μL of 0.05 U/μL solution of alcohol oxidase (from Pichia pastoris, purchased from Sigma-Aldrich) was added to cell and allowed to incubate at room temperature for 5 minutes. During this time, the alcohol oxidase converts the methanol into formaldehyde. Purpald (168 mM in 2 M NAOH) was then added to form a purple product with the formaldehyde in solution. The purple color was read approximately 1 hour later at 550 nm using a Spectramax Plus microtiter plate reader. The concentration of methanol was determined based on the measure absorbance in comparison to a methanol calibration curve. The methanol calibration curve was generated with several standards. Each standard contained 100 μL of a methanol solution (10, 20, 40, 60, 100 μM) and 90 μL of the methane reaction mixture described above, without the methane pressurization.
The relative dimethyl ether (DME) activity was measured, 1 hour after treatment with Purpald, as the average net and absorbance at 550 nm from 8 microtitre plate DME reactions of the mutant compared to 8 equivalent reactions of 35-E11. All values were normalized by measuring the P450 concentration in each well with CO binding. “Asteriks” indicate criteria used to select mutants from libraries for further characterization. The oxidation rate is measured as absorbance change at 340 nm over 1 minute upon the addition of NADPH to 8 microtitre plate wells containing P450-containing cell lysate and compared to 8 equivalent reactions of 35-E11. […]

The nature of test [2]: High-throughput dimethyl ether (DME) screen. The following applies: relative to 35-E11; normalized to P450 concentration. On the procedure:
Cell lysates for high throughput screening were prepared as described previously (Peters et al., J. Am. Chem. Soc. 125:13442 (2003); incorporated by reference herein). High-throughput dimethyl ether (DME) screens were performed in 96 well plates as described previously. Improved mutants were selected based on an increased signal compared to 9-10A (for the saturation mutagenesis libraries) and 1-12G (for the recombination library). Reactions on octane and propane were analyzed by gas chromatography as described.
(§1) Libraries of mutants of 35-E11 were screened for phenotypes indicative of either increased product formation on small gaseous substrates slightly larger than methane. Additionally, they were screened for increased coupling of the consumption of NADPH reducing equivalents to product formation. Product formation was determined by measuring total amount of dimethyl ether hydroxylation while increased coupling was determined primarily by decreased background NADPH consumption rates (measured spectrophotometrically at 340 nm in the absence of substrate).
The relative dimethyl ether (DME) activity was measured, 1 hour after treatment with Purpald, as the average net and absorbance at 550 nm from 8 microtitre plate DME reactions of the mutant compared to 8 equivalent reactions of 35-E11. All values were normalized by measuring the P450 concentration in each well with CO binding. “Asteriks” indicate criteria used to select mutants from libraries for further characterization. The oxidation rate is measured as absorbance change at 340 nm over 1 minute upon the addition of NADPH to 8 microtitre plate wells containing P450-containing cell lysate and compared to 8 equivalent reactions of 35-E11. All values were normalized by measuring the P450 concentration in each well with CO binding. The total turnover number (TTN) was measured as the absorbance at 550 nm of methane reactions with each mutant after treatment with alcohol oxidase and
Screening libraries by spectroscopically monitoring NADPH consumption rates in the presence of the alkane often selects for mutants with NADPH oxidation rates highly uncoupled to product formation. This can be overcome through the use of surrogate substrates that mimic desired substrates, yet yield species when hydroxylated that are easily detected either directly or with the addition of a dye. For example, the screen for the high-throughput identification of mutant BM-3 enzymes with activity towards propane as described previously uses dimethyl ether (DME) as a propane surrogate substrate. Upon hydroxylation, it decomposes into methanol and dye-sensitive formaldehyde. In addition, hexyl methyl ether (HME) may be used as a surrogate for octane. It shares most of the physical properties of octane, including solubility in buffer, size, shape, and strength of its C—H bonds. When HME is hydroxylated at its methoxy carbon, it also produces an equivalent of formaldehyde which is visually detected at concentrations as low as 10 μM with the dye Purpald (see FIG. 25). Hexanal, the aldehyde product formed when the α-carbon of the hexyl group is hydroxylated, is practically unreactive towards Purpald at some concentrations used in the present screens. Formaldehyde is approximately 42 times more sensitive to Purpald than hexanal (see FIG. 26). This disproportionate response makes HME, in contrast to the symmetric ether DME, a regio-selective screen for terminal alkane hydroxylation.
High-throughput screening. Single colonies were picked and inoculated by a Qpix robot (Genetix, Beaverton, OR) into 1-mL, deep-well plates containing LB (Amp*) medium (400 μL). The plates were incubated at 30° C., 250 rpm, and 80% relative humidity. After 24 h, 50 μL from this pre-culture were used to inoculate a 2-mL, deep-well plates containing […] TB (Amp^+) medium per well. Cultures were grown at 37° C., 220 rpm, and 80% relative humidity. […]

Test [3] is described as follows: Background NADPH oxidation rate in screen (cell lysate, no substrate). The following applies: relative to 35-E11. On the procedure: as §1
The relative dimethyl ether (DME) activity was measured, 1 hour after treatment with Purpald, as the average net and absorbance at 550 nm from 8 microtitre plate DME reactions of the mutant compared to 8 equivalent reactions of 35-E11. All values were normalized by measuring the P450 concentration in each well with CO binding. “Asteriks” indicate criteria used to select mutants from libraries for further characterization. The oxidation rate is measured as absorbance change at 340 nm over 1 minute upon the addition of NADPH to 8 microtitre plate wells containing P450-containing cell lysate and compared to 8 equivalent reactions of 35-E11. All values were normalized by measuring the P450 concentration in each well with CO binding. The total turnover number (TTN) was measured as the absorbance at 550 nm of methane reactions with each mutant after treatment with alcohol oxidase and […]

Marks after values point to notes of the source that are not given here.

B1: 35-E11-E464T: P450 BM-3 variant, SEQ ID NO:10; 35-E11 with E464T (protein)
chain: TIKEMPQPKTFGELKNLPLLNTDKPVQALMKIADELGEIFKFEAPGCVTRYLSSQRLIKEACDESRFDKNLSQALKFFRDFSGDGLFTSWTHEINWKKAHNILLPSFSQQAMKGYHAMMVDIAVQLVQKWERLNADEHIEVSEDMTRLTLDTIGLCGFNYRFNSFYRDQPHPFIISMVRALDEVMNKLQRANPDDPAYDENKRQCQEDIKVMNDLVDKIIADRKARGEQSDDLLTQMLNGKDPETGEPLDDGNISYQIITFLIAGHETTSGLLSFALYFLVKNPHVLQKVVEEAARVLVDPVPSYKQVKQLKYVGMVLNEALRLWPTFPAFSLYAKEDTVLGGEYPLEKGDEVMVLIPQLHRDKTIWGDDVEEFRPERFENPSAIPQHAFKPFGNGQRACIGQQFALHEATLVLGMMLKHFDFEDHTNYELDIKETLTLKPEGFVVKAKSKKIPLGGIPSPSTTQSAKKVRKKAENAHNTPLLVLYGSNMGTAEGTARDLADIAMSKGFAPQVATLDSHAGNLPREGAVLIVTASYNGHPPDNAKQFVDWLDQASADEVKGVRYSVFGCGDKNWATTYQKVPAFIDETLAAKGAENIADRGEADASDDFEGTYEEWREHMWSDVAAYFNLDIENSEDNKSTLSLQFVDSAADMPLAKMHGAFSTNVVASKELQQPGSARSTRHLEIELPKEASYQEGDHLGVIPRNYEGTVNRVTARFGLDASQQIRLEAEEEKLAHLPLAKTVSVEELLQYVELQDPVTRTQLRAMAAKTVCPPHKVELEALLEKQAYKEQVLAKRLTMLELLEKYPACEMKFSEFIALLPSIRPRYYSISSSPRVDEKQASITVSVVSGEAWSGYGEYKGIASNYLAELQEGDTITCFISTPQSEFTLPKDPETPLIMVGPGTGVAPFRGFVQARKQLKEQGQSLGEAHLYFGCRSPHEDYLYQEELENAQSEGIITLHTAFSRMPNQPKTYVQHVMEQDGKKLIELLDQGAHFYICGDGSQMAPAVEATLMKSYADVHQVSEADARLWLQQLEEKGRYAKDVWAG
modifications: mutant P450 35-E11-E464T protein sequence
notes: 35-E11 with E464T
B1: the “Methane TTN” value in test [1] is listed as 11. Also, the “Relative DME activity in screen” value in test [2] is given as 0.8. Besides, the “Relative background NADPH oxidation rate” value in test [3] is recorded as 0.7*.

B2: 23-1D: P450 BM-3 variant, SEQ ID NO:12; 35-E11 plus Q645R, P968L (protein)
chain: TIKEMPQPKTFGELKNLPLLNTDKPVQALMKIADELGEIFKFEAPGCVTRYLSSQRLIKEACDESRFDKNLSQALKFFRDFSGDGLFTSWTHEINWKKAHNILLPSFSQQAMKGYHAMMVDIAVQLVQKWERLNADEHIEVSEDMTRLTLDTIGLCGFNYRFNSFYRDQPHPFIISMVRALDEVMNKLQRANPDDPAYDENKRQCQEDIKVMNDLVDKIIADRKARGEQSDDLLTQMLNGKDPETGEPLDDGNISYQIITFLIAGHETTSGLLSFALYFLVKNPHVLQKVVEEAARVLVDPVPSYKQVKQLKYVGMVLNEALRLWPTFPAFSLYAKEDTVLGGEYPLEKGDEVMVLIPQLHRDKTIWGDDVEEFRPERFENPSAIPQHAFKPFGNGQRACIGQQFALHEATLVLGMMLKHFDFEDHTNYELDIKETLTLKPEGFVVKAKSKKIPLGGIPSPSTGQSAKKVRKKAENAHNTPLLVLYGSNMGTAEGTARDLADIAMSKGFAPQVATLDSHAGNLPREGAVLIVTASYNGHPPDNAKQFVDWLDQASADEVKGVRYSVFGCGDKNWATTYQKVPAFIDETLAAKGAENIADRGEADASDDFEGTYEEWREHMWSDVAAYFNLDIENSEDNKSTLSLRFVDSAADMPLAKMHGAFSTNVVASKELQQPGSARSTRHLEIELPKEASYQEGDHLGVIPRNYEGTVNRVTARFGLDASQQIRLEAEEEKLAHLPLAKTVSVEELLQYVELQDPVTRTQLRAMAAKTVCPPHKVELEALLEKQAYKEQVLAKRLTMLELLEKYPACEMKFSEFIALLPSIRPRYYSISSSPRVDEKQASITVSVVSGEAWSGYGEYKGIASNYLAELQEGDTITCFISTPQSEFTLPKDPETPLIMVGPGTGVAPFRGFVQARKQLKEQGQSLGEAHLYFGCRSPHEDYLYQEELENAQSEGIITLHTAFSRMLNQPKTYVQHVMEQDGKKLIELLDQGAHFYICGDGSQMAPAVEATLMKSYADVHQVSEADARLWLQQLEEKGRYAKDVWAG
modifications: Mutant P450 23-1D protein sequence
notes: 35-E11 plus Q645R, P968L
In the case of B2, the “Methane TTN” value in test [1] is given as 11. Besides, the “Relative DME activity in screen” value in test [2] was 0.7. Further, in test [3], the “Relative background NADPH oxidation rate” value is on record as 0.8*.
